No end group written: not given here. *: point of attachment. FITC = O=C1OC2(c3ccc(O)cc3Oc3cc(O)ccc32)c2ccc(NC(=S)*)cc21; Ahx = NCCCCCC(=O)O
B1: soluble αVβ6 headpiece (complex)
chain 1: FNLDVDSPAEYSGPEGSYFGFAVDFFVPSASSRMFLLVGAPKANTTQPGIVEGGQVLKCDWSSTRRCQPIEFDATGNRDYAKDDPLEFKSHQWFGASVRSKQDKILACAPLYHWRTEMKQEREPVGTCFLQDGTKTVEYAPCRSQDIDADGQGFCQGGFSIDFTKADRVLLGGPGSFYWQGQLISDQVAEIVSKYDPNVYSIKYNNQLATRTAQAIFDDSYLGYSVAVGDFNGDGIDDFVSGVPRAARTLGMVYIYDGKNMSSLYNFTGEQMAAYFGFSVAATDINGDDYADVFIGAPLFMDRGSDGKLQEVGQVSVSLQRASGDFQTTKLNGFEVFARFGSAIAPLGDLDQDGFNDIAIAAPYGGEDKKGIVYIFNGRSTGLNAVPSQILEGQWAARSCPPSFGYSMKGATDIDKNGYPDLIVGAFGVDRAILYRARPVITVNAGLEVYPSILNQDNKTCSLPGTALKVSCFNVRFCLKADGKGVLPRKLNFQVELLLDKLKQKGAIRRALFLYSRSPSHSKNMTISRGGLMQCEELIAYLRDESEFRDKLTPITIFMEYRLDYRTAADTTGLQPILNQFTPANISRQAHILLDTGGLEVLFQ
chain 2: HVQGGCALGGAETCEDCLLIGPQCAWCAQENFTHPSGVGERCDTPANLLAKGCQLNFIENPVSQVEILKNKPLSVGRQKNSSDIVQIAPQSLILKLRPGGAQTLQVHVRQTEDYPVDLYYLMDLSASMDDDLNTIKELGSRLSKEMSKLTSNFRLGFGSFVEKPVSPFVKTTPEEIANPCSSIPYFCLPTFGFKHILPLTNDAERFNEIVKNQKISANIDTPEGGFDAIMQAAVCKEKIGWRNDSLHLLVFVSDADSHFGMDSKLAGIVCPNDGLCHLDSKNEYSMSTVLEYPTIGQLIDKLVQNNVLLIFAVTQEQVHLYENYAKLIPGATVGLLQKDSGNILQLIISAYEELRSEVELEVLGDTEGLNLSFTAICNNGTLFQHQKKCSHMKVGDTASFSVTVNIPHCERRSRHIIIKPVGLGDALELLVSPECNCDCQKEVEVNSSKCHHGNGSFQCGVCACHPGHMGPRCESRGLQTLFQ

Key:
Experiment in all cases: fluorescence polarisation
[1] = target: nonapeptide containing RGD from pro-TGF-β3
soluble αVβ3 headpiece = soluble αVβ3 headpiece (human, UniProt P06756 31-624; P05106 27-498, M400C | Q267C)
soluble αVβ6 headpiece = target: B1

soluble αVβ3 headpiece, sequence (P05106 27-498 Q293C, one chain of several): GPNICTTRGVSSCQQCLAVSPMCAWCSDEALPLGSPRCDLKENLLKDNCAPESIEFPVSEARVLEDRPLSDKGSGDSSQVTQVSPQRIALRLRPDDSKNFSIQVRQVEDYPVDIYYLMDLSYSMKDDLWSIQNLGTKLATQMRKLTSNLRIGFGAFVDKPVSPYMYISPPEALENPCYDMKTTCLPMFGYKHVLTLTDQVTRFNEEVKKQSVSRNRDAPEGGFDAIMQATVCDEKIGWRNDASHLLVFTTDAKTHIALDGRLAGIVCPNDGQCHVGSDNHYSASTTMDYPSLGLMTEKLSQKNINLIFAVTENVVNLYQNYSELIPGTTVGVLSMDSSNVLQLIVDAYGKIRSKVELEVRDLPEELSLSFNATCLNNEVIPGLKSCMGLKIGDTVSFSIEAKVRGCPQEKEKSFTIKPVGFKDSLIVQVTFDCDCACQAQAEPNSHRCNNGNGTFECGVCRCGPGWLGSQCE

Binder: B1
- Kd [1]: 0.0085 µM

Binder: {FITC-Ahx}-GRGDLGRL [FITC–pro-TGF-β3 peptide (FITC-aminohexanoic-GRGDLGRL)]
- binding result (soluble αVβ3 headpiece): binds

Binder: YTSGDQKTI [homologous peptide from pro-TGF-β2 (SGD in place of RGD)]
- Kd (soluble αVβ6 headpiece): 8.5 µM

Source: publication PMC4717663 (Nature structural & molecular biology, 2014)
